Experimental findings from patent US20250073302A1 (PURDUE RESEARCH FOUNDATION, published 2025) are described below.

Holding throughout (assay): cell-based or functional assay
Assay [1] addresses 20S core particle (CP) proteasome.
The target of assay [2] is cytosolic proteasome in HEK293 T cells.
Assay [3] concerns the target 20S core particle (CP) proteasome. This is another data set of the same source.

Non-standard residues stand in square brackets, D forms with d. No end group written: not given here. dPra = C#CC[C@@H](N)C(=O)O; dDap = NC[C@@H](N)C(=O)O

B1: CyPPS9 (peptide)
peptide: cyclo(V[dL]F[dF]R[dA])
SMILES: CC(C)C[C@H]1NC(=O)[C@H](C(C)C)NC(=O)[C@@H](C)NC(=O)[C@H](CCCNC(=N)N)NC(=O)[C@@H](Cc2ccccc2)NC(=O)[C@H](Cc2ccccc2)NC1=O
Consider B1, for which the “TAS-1 (percent stimulation of 20S CP)” value in assay [1] is 310 % of DMSO.

B2: CyPPS8 (peptide)
peptide: cyclo(D[dL]F[dF]R[dA])
SMILES: CC(C)C[C@H]1NC(=O)[C@H](CC(=O)O)NC(=O)[C@@H](C)NC(=O)[C@H](CCCNC(=N)N)NC(=O)[C@@H](Cc2ccccc2)NC(=O)[C@H](Cc2ccccc2)NC1=O
As to B2, the “TAS-1 (percent stimulation of 20S CP)” value in assay [1] was 372 % of DMSO. Further, the “In-Cellulo (flow cytometry with epoxomicin probe, HEK293 T cells)” value (“In-Cellulo” below) in assay [2] was determined as 161 not printed. Further, in assay [3], the “EC50, dose-response of 20S CP stimulation” value (“EC50, dose-response” below) was 14.2 µM and the “Emax, dose-response of 20S CP stimulation” value (“Emax, dose-response” for short) came to 701.

B3: CyPPS13 (peptide)
peptide: cyclo(T[dV]F[dF]R[dA])
SMILES: CC(C)[C@H]1NC(=O)[C@H]([C@@H](C)O)NC(=O)[C@@H](C)NC(=O)[C@H](CCCNC(=N)N)NC(=O)[C@@H](Cc2ccccc2)NC(=O)[C@H](Cc2ccccc2)NC1=O
As to B3, in assay [1], the “TAS-1 (percent stimulation of 20S CP)” value is 422 % of DMSO. Moreover, the “In-Cellulo” value in assay [2] was 174 not printed. For the same molecule, in assay [3], the “EC50, dose-response” value was 4 µM and the “Emax, dose-response” value stood at 394.

B4: CyPPS14 (peptide)
peptide: cyclo(T[dPra]F[dF]R[dA])
SMILES: C#CC[C@H]1NC(=O)[C@H]([C@@H](C)O)NC(=O)[C@@H](C)NC(=O)[C@H](CCCNC(=N)N)NC(=O)[C@@H](Cc2ccccc2)NC(=O)[C@H](Cc2ccccc2)NC1=O
On to B4, for which the “TAS-1 (percent stimulation of 20S CP)” value in assay [1] is 388 % of DMSO. In addition, the “In-Cellulo” value in assay [2] is 231 not printed. In addition, in assay [3], the “EC50, dose-response” value was 12.1 µM and the “Emax, dose-response” value came out at 514.

B5: CyPPS23 (peptide)
peptide: cyclo(T[dL]F[dF]R[dDap])
SMILES: CC(C)C[C@H]1NC(=O)[C@H]([C@@H](C)O)NC(=O)[C@@H](CN)NC(=O)[C@H](CCCNC(=N)N)NC(=O)[C@@H](Cc2ccccc2)NC(=O)[C@H](Cc2ccccc2)NC1=O
For B5, the “TAS-1 (percent stimulation of 20S CP)” value in assay [1] was 352 % of DMSO. In assay [2], the “In-Cellulo” value is 247 not printed. Also, in assay [3], the “EC50, dose-response” value turned out to be 4.1 µM and the “Emax, dose-response” value is 391.

B6: CyPPS1 (peptide)
peptide: cyclo(T[dL]F[dF]R[dA])
SMILES: CC(C)C[C@H]1NC(=O)[C@H]([C@@H](C)O)NC(=O)[C@@H](C)NC(=O)[C@H](CCCNC(=N)N)NC(=O)[C@@H](Cc2ccccc2)NC(=O)[C@H](Cc2ccccc2)NC1=O
Consider B6, for which, in assay [1], the “TAS-1 (percent stimulation of 20S CP)” value was 340 % of DMSO. Besides, the “In-Cellulo” value in assay [2] amounted to 235 not printed. In assay [3], the “EC50, dose-response” value was 6.4 µM and the “Emax, dose-response” value amounted to 283.
Take TLFFRA (also: linear version of CyPPS1, D-residues not given here) [PPS1]: the “TAS-1 (percent stimulation of 20S CP)” value in assay [1] is 126 % of DMSO. In addition, in assay [2], the “In-Cellulo” value stood at 83.7 not printed.

B7: CyPPS7 (peptide)
peptide: cyclo(K[dL]F[dF]R[dA])
SMILES: CC(C)C[C@H]1NC(=O)[C@H](CCCCN)NC(=O)[C@@H](C)NC(=O)[C@H](CCCNC(=N)N)NC(=O)[C@@H](Cc2ccccc2)NC(=O)[C@H](Cc2ccccc2)NC1=O
Take B7: the “TAS-1 (percent stimulation of 20S CP)” value in assay [1] was 226 % of DMSO.
